In the nanobody polyreactivity screen of Harvey et al. (2022):

Assay: yeast display, Sf9 membrane polyspecificity reagent, FACS + sequencing; frameworks hold sequencing errors
How it was run: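 Sorting gates, low and high (top ~1%), were placed on anti-HA fluorescence to track expression and on streptavidin fluorescence to track reagent binding. A clone's polyreactivity label is taken from the gate it came out of. The reagent was 10% biotinylated, detergent-solubilized Sf9 membrane, applied for 1 hour at 4 °C to galactose-induced yeast display cells.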

Sequence	polyreactivity (PSR sort gate)
QDQLVESGGGLVQAGGSLRLSCAASGNIFWSNAMGWYRQAPVKERELVAGIRSTGGSTYYADSVKGRFTISRDNAKNTVYLQMNSLKPEDTAVYYCAAEHWYSTPWWTDDYWGQGTQVTLSS	high polyreactivity
QDQLVESGGGLVQAGGSLRLSCAASGRIFNQYGMGWYRQAPGKERELVAAIRSGDSTNYADSVKGRFTISRDNAKNTVYLQMNSLKPEDTAVYYCARDRPGDYAGYDYWGQGTQVTVSS	low polyreactivity
QDQLVESGGGLVQAGGSLRLSCAASGRIFPAYVMGWYRQAPGKERELVATIDNGGGTYYADSVKGRFTISRDNAKNTVYLQMNSLKPEDTAVYYCARDRHVRWGLKMDYWGQGTQVTVSS	low polyreactivity
QDQLVESGGGLVQAGGSLRLSCAASGRIISLYAMGWYRQAPVKERDLVAAISRRSGNTNYADSVKGRFTISRDNAKNTVYLQMNSLKPEDTAVYYCAARPGAISSTSPYDYWGQGTQVTVSS	high polyreactivity
QDQLVESGGGLVQAGGSLRLSCAASGRIVSDYAMGWYRQAPGKERELVARISRSDGSSYYADSVKGRFTISRDNAKNTVYLQMNSLKPEDTAVYYCAAQWTDGRRDHWWDKGFYYWGQGTQVTVSS	low polyreactivity
QDQLVESGGGLVQAGGSLRLSCAASGRLFSQYAMGWYRQAPGKERELVAAISWRTGSTYYADSVKGRFTISRDNAKNTVYLQMNSLKPEDTAVYYCSAANAGRYPYNYSGQGTQVTVSS	high polyreactivity
QDQLVESGGGLVQAGGSLRLSCAASGRNFPGYVMGWYRQAPGKERELVAVITSNGGITYYADSVKGRFTISRDNAKNTVYLQMNSLKPEDTAVYYCAAYEIYYEFDSWGQGTLVTVSS	low polyreactivity
QDQLVESGGGLVQAGGSLRLSCAASGRTFDSYAMGWYRQAPGKERELVAAIDADSVKGRFTISRDNAKNTVYLQMNSLKPEVTAVYYCAKPSRWGWTGFYAYEYWGQGTQVTVSS	low polyreactivity
QDQLVESGGGLVQAGGSLRLSCAASGRTFEGNAMGWYRQAPGKERELVAAITSGGRTNYADSVKGRFTISRDNAKNTVYLQMNSLKPEDTEVYYCANVYRSIGPNVSRYGLSYYYWGQGTQVTVSS	low polyreactivity
QDQLVESGGGLVQAGGSLRLSCAASGRTFGEYAMGWYRQAPGKERELVAAISSTGSTYYADSVKGRFTISRDNAKNTVYLQMNSLKPEDTAVYDCAAEIVRYGDEYDYWGQGTQVTVSS	low polyreactivity
QDQLVESGGGLVQAGGSLRLSCAASGRTFGVNAMGWYRQAPGKERELVASIRWNGGSTYYADSVKGRFTISRDNAKNTVYFQMNSLKPEDTAVYYCNAVRRYRSREFDYWGQGTQVNVSS	low polyreactivity
QDQLVESGGGLVQAGGSLRLSCAASGRTFHSYVMGWYRQAPGKERELVAAISRSGGNTYYADSVKGRFTISRDNAKNTVYLQMNSLKPEDTAVYYCAAALSAYVKWDYYYWGQGTQVTVSS	low polyreactivity
QDQLVESGGGLVQAGGSLRLSCAASGRTFIYYVMGWSRQAPGKERELVAAISLRGSSTRYADSVKGRFTISRDNAKNTVYLQMNSLKPEDTAVYYCAARPRLSRYDYWGQGTQVTVSS	high polyreactivity
QDQLVESGGGLVQAGGSLRLSCAASGRTFRSYAMGWSRQAPGKERELVAAISTRGGSTYYADSVKGRFTISRDYAKNTVYLQMNSLKPEDTAVYYCAARGTPSARYGDWGQGTQVTVSS	high polyreactivity
QDQLVESGGGLVQAGGSLRLSCAASGRTFSRYTMGWYRQAPGKERELVAAISKRGGSTYYADSVKGRLTISRDNAKNTVYLQMNSLKPADTAVYYCNAYGLVGLDGVKMYYWGQGTQVTVSS	high polyreactivity
QDQLVESGGGLVQAGGSLRLSCAASGRTFTHYALGWYRQAPGKERELVAAISWSGGITYYADSVKGRFTISRDYAKNTVYLQMNSLKPEDTAVYYCAAEHYFSGYYYWGQGTQVTVSS	high polyreactivity
QDQLVESGGGLVQAGGSLRLSCAASGRTFWRNAMGWSRQAPGKEREMVAAINSGGRTYYADAVKGRFTISRDNAKNTVYLQMNSLKPEDTAVYYCAVYVHRFLDGRVRSYRGDYWGQGTQVTVSS	high polyreactivity
QDQLVESGGGLVQAGGSLRLSCAASGSIFARYAMGWYRQAPGKERELVAAINSTVSTNYADSVKGRFTISRDNAKNTVYLQMNSLKPEDTAVYYCAVDIVRGGRDSWGQGTQVTVSS	low polyreactivity
QDQLVESGGGLVQAGGSLRLSCAASGSIFERYTMGWSRQAPGKERELVAAITTNGGSTYADSVKGRFTISRDNAKNTVYLQMNTLKPEDTADYYCNVDVYLYAKEYDYWGQGTQVTVSS	high polyreactivity
QDQLVESGGGLVQAGGSLRLSCAASGSIFGGNTMGWYRQAPGKERELVAAISRSGGSTYYADSVKGRFTISRDNAKNTVYLQMNSLKPEDTEVYYCYRKQAGHAKGYDYWGQGTQVTVSS	high polyreactivity
QDQLVESGGGLVQAGGSLRLSCAASGSIFNGNAMGWYRPAPGKERELVAAITRRGGRTFYADSVKGRFTISRDNAKNSVYLQMNSLKPEDTAVYYCNAYSKAVQGGYDYWGQGTQVTVSS	high polyreactivity
QDQLVESGGGLVQAGGSLRLSCAASGSIFPDYTMGWYRQAPGKERELVPGNTWNGGGTYYADSVKGRITISRDNAKNTVYLQMYSLKPEDTAVYYCAAVWSGSRSTGAWGPYNYWGQGTQVTVSS	low polyreactivity

Sequence	polyreactivity (PSR sort gate)
QDQLVESGGGLVQAGGSLRLSCAASGSIFPGYAMGWYRKAPGKEREFVATITWSGGSTYYADSVKGRFTISRDNAKNTVYLQMNSLKPEDTAVYYCNADSNWYYQWNYYGLYDYWGQGTQVTVSS	low polyreactivity
QDQLVESGGGLVQAGGSLRLSCAASGSIFRAYAMGWYRQAPGKERELVAAISRSGDSTYYADSVKGRFTISRDNAKNTVYLQMNSLKPEDTAVYYCAAQRKPYVRPSGPYKRRDYWGQGTQVTVSS	high polyreactivity
QDQLVESGGGLVQAGGSLRLSCAASGSIFTDYAMGWYRQAPAKERELVAAITSSGGSTYYADSVKGRFTISRDYAKNTVYLQMKSLKTEDTAVYYCAADRITIYDYWGQGTQVTVSS	low polyreactivity
QDQLVESGGGLVQAGGSLRLSCAASGSIFVNYAMGWYRQAPGKERELVAAISRSGGRTYYADSVKGRFTISRDSAKITVYLQMNSLIPEDTAVYYCNVDPVLRTIEGDYWGQGTQVTVSS	high polyreactivity
QDQLVESGGGLVQAGGSLRLSCAASGSIFVRYAMGWYRQAPGKERELVAAITSSAGYTYYADSVKGRFTISRDNAKNTVNLQMNSLKPEDTAVYYCAAVRYDASKFYYWGAGTQVTVSS	high polyreactivity
QDQLVESGGGLVQAGGSLRLSCAASGSIFYRNAMGWYRQAPGKERELVAAISSDGSTNYADSVKGRFTISRDNAKNTVYLQMNSLKPEDTAVYYCAAPWTQILDYWGQGTQVTVSS	low polyreactivity
QDQLVESGGGLVQAGGSLRLSCAASGSMFDYYAMGWYRQAPGKERELVAAISGSGSRTYYADSVKGRFTISRVTAKNTVYIQMNRLKPEDTAFYYCAAESVVYDIVGYEYWYDYYWGLGTQVTVSS	high polyreactivity
QDQLVESGGGLVQAGGSLRLSCAASGSTFDGYAMGWYRPAPGKERELVADITSGGSTYYADSVKGRFTISRDNAKNTVYLQMNSLKPEDTAVYYCAVEGWWDDYNSRAGEFNYWGQRTQVTVSS	low polyreactivity
QDQLVESGGGLVQAGGSLRLSCAASGSTFGFYAMGWYRQAPGKERELVAAITTGGSTNYADSVKGRFTISRDNAKNTVYLQMNSLKPEDTAVYYCNADVYWNPYYDYDYWGQGTQVTVSS	high polyreactivity
QDQLVESGGGLVQAGGSLRLSCAASGSTFHLNALGWYRQSPGKERELVAAISRDGSSTSYADSEKGRFTISRDNAKNTVYLQMNSLKPEDTAVFYCAADDTLDRVPSTFIDGSPGYGYWGLGTQVTVSS	low polyreactivity
QDQLVESGGGLVQAGGSLRLSCAASGSTFLTYAMGWYRQAPGKERELVAAISKTGASTYYADSVKGRFTISRDNAKNTVYLQMNSLKPEDTAVYDCAAGRYTSYSPRYYYWGQGTQVTVSS	high polyreactivity
QDQLVESGGGLVQAGGSLRLSCAASGSTFSGYGMGWYRQAPGKERELVAAITSSGGRTYYADSVKGRFTISRDNAKNTVYLQMNSLKPEDTAVYYCAALYYHEYDYWGQGTQVTVSS	low polyreactivity
QDQLVESGGGLVQAGGSLRLSCAASGSTFVANDMGWYRQAPGKERELVASISDGSSTYADSVKGRFTISRDNAKNTVYLQMNSLKPEDTAVYYCAKDGSLDAQSYDYDYWGQGTQVTVSS	low polyreactivity
QDQLVESGGGLVQAGGSLRLSCAASGSTFVVNAMGWYRQAPGKERELVAAISSSGSSTYADSVKGRFTISRDNEKNTVYLQMNCLKPEDTAVYYCHKTTLLTVEYDYWGQGTQVSVSS	low polyreactivity
QDQLVESGGGLVQAGGSLRLSCAASGSTLGYNAMGWYRQAPGKERELVAAIRGGDDDTYYADSVKGRFTISRDNAKNTVYLQMNSLKPEDTAVYYCATGDTSIPYSTPGGYDSWGQGTQVTVSS	low polyreactivity
QDQLVESGGGLVQAGGSLRLSCAASGYTFTSNAMGWYRQAPRKERELVAAITNVGSTNYADSVKGRFTISRDNAKNTVNLQMNSLKPEDTAVYYCAAGGSSSWAFNYWGQGTQVTVSS	low polyreactivity
QDQLVESGGGLVQAGGSLRLSCAASGYTLYTYAMGWNRQAPRKERELVAAISTGGGRTYNADSVKGRFTISRDNAKNTVYLQMICLKPEDTAVYYCAAPYRSLKTGRYDYWGQGTQVSVSS	high polyreactivity
QDQLVESGGGLVQAGGSLRLSCAASRSTFYHNVMGWYRQAPGKERELVASIDTGDSTNYADSVKGRFTISRDNAKNTVYLQMNSLKPEDTAVYYCAAEIPRRWASFATLWYDYWGQGTQVTVSS	low polyreactivity
QDQLVESGGGLVQAGGSLRLSCAASVSTFVNYAMGWYRQAPGKEMELVAAMSWSGGSTYYADSVKGRFTISRDNAKNTVYLQMNSLKPEDTAVYYCAVYAYWRFRTYYYWGQGTQVTVSA	high polyreactivity
QDQLVESGGGLVQAGGSLRLSCAATGRIFERNAMGWYRQAPAKERELVARITSGGGTYYADSVKGRFTISRDNAKNTVYLQMNSLKPEDTAVYYCAVQYLYRKYRRYDYWGQGTQVTVSS	high polyreactivity
QDQLVESGGGLVQAGGSLRLSCAATGSIFGFNTMGWYRQAPGKERELVPTINWRGGRTYYADSVKGRFTISRDNAKNTVYLLMNSLKPEDTAVYYFNTQGLAGQYQEHGYWGQGTQVTVSS	high polyreactivity
